Read-outs that look alike come from different tables or passages of the source. Values belong to the molecule of their own block, whether it stands above or below them. No end group written: not given here.
Key:
[1] = tested on: human anti-Galα(1,3)Gal IgG antibodies; assay: Elisa: inhibition of anti-Galα(1,3)Gal IgG binding to Galα(1,3)Gal-BSA; conditions: for Inhibition of binding of anti-Galα(1,3)Gal IgG to Galα(1,3)Gal-BSA: Elisa, peptides at 5 mM (FIG. 8b); for IC50: Table 3, anti-Galα(1,3)Gal antibody (IgG) 87 μgs/ml, read-out: I50 Anti-Galα(1,3)Gal
Procedure: (§1) 50 μl of either purified anti-Galα(1,3)Ga IgG or biotinylated IB4 lectin was added to the wells, incubated for 45 minutes at 22° C., washed with PBS-0.05% Tween 20, and 50 μl of the relevant IIRP conjugate added and incubated for a further 45 minutes before washing and the addition of 50 μl of substrate (2,2′ Azino-di-B-ethylbenzthiozoline (Zymed, San Francisco, Calif.)) and reading the OD405.
(§2) An Elisa was established to calculate the relative “affinity” of the Gal pep 1 (SEQ ID No. 1) for the IB4 lectin and for human anti-Galα(1,3)Gal antibodies, and to compare these with the affinities for α-galactosyl sugars.
(§3) Peptides or carbohydrates were examined cytofluorographically for their ability to inhibit antibody/lectin binding to the cell surface using a FACSCAN flow cytometer (Becton Dickinson, USA)[20]: 25 μl of inhibitor was mixed with 25 μl of antibody of lectin and incubated at 22° C. for 3 hours (peptides) or at 4° C. for 16 hours (carbohydrates)[14], prior to addition of appropriate targets. An Elisa assay was used to calculate the relative affinities of the sugars or the peptides for both IB4 lectin and antibodies, and were defined as the molar concentration of inhibitor giving 50% inhibition of the maximal binding of lectin or antibody.

[2] = biological target: T1, IB4 lectin (Griffonia simplicifolia, UniProt Q8W1R6); assay: Elisa: inhibition of IB4 lectin binding to Galα(1,3)Gal-BSA; conditions: for Inhibition of binding of IB4 to Galα(1,3)Gal-BSA: Elisa, peptide concentration 5 mM (FIG. 8a)
T1 sequence (Q8W1R6 1-247): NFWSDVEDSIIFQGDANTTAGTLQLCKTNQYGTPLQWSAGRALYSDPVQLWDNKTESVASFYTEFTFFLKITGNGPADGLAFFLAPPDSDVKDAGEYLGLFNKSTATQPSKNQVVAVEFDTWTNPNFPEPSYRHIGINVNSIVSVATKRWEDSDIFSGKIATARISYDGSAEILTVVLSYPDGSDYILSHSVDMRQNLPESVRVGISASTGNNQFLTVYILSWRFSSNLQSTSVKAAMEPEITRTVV
Procedure: as §1, §2, §3

[3] = biological target: T1, IB4 lectin; assay: Cytofluorographic inhibition of IB4 lectin binding to PIEC cells; format: cell-based; conditions: peptides at 5 mM (FIG. 7)
Procedure: FIGS. 3(A-C). […] (A); Staining of PIEC cells with IB4 lectin (1 μg/ml). (B) Staining of PIEC cells with NHS (final dilution of 1/50) and anti-human Ig. (C) Staining of PBL with IB4 lectin (μg/ml). Peptides were used at 5 mM (A and C) or at 20 mM (B). In each panel profile “a” represents binding in the presence of Gal pep 1 (SEQ ID No. 1), and profile “b” the binding in the presence of CD48 pep 1 (SEQ ID No. 11).
FIGS. 6(A-B). […] Varying concentrations of peptides (shown in mM on horizontal axis) were explained for ability to inhibit the binding of IB4 lectin (1 μg/ml) to tie PIEC cells using cytofluorographic analysis. (a) Gal pep 1 (SEQ ID No. 1) (□), Muc pep 1 (SEQ ID No. 15) (∘).
FIG. 7. […] All peptides used at 5 mM, using cytofluorograhic analysis. Inhibition calculated relative to no peptide control.
(§4) The binding of lectin or antibody to the surface of pig cells was detected by hemagglutination, cytotoxicity or flow cytometry using the FACSCAN flow cytometer (Becton Dickinson, Mountain View, Calif.).
as §3

[4] = tested on: PIEC cells; assay: Inhibition of cytotoxicity of NHS and complement on PIEC; format: cell-based, pig; conditions: peptide 10 mM to 2.5 mM, NHS 1/25
Description: FIG. 4. Inhibition of cytotoxicity due to natural antibody and complement by Gal pep 1 (SEQ ID No. 1). Varying concentrations of Gal pep 1 (∘) or CD48 pep 1 (♦) (shown in mM on horizontal axis) were examined in a cytotoxicity assay using NHS (final dilution of 1/25) and PEEC cells as targets.
as §4
Human cytotoxic antibodies directly damage pig endothelial cells in a pig-to-human xenograft, therefore the ability of Gal pep 1 (SEQ ID No. 1) to inhibit the cytotoxicity of human antibodies on PIEC in vitro was tested; Gal pep 1 inhibited the cytotoxicity of NHS (10 mM to 2.5 mM), whereas CD48 pep 1 (SEQ ID No. 11) had no effect (FIG. 4).

[5] = biological target: purified human anti-Galα(1,3)Gal IgG antibodies (human); assay: competition ELISA (I50): peptide inhibits anti-Galα(1,3)Gal IgG binding to Galα(1,3)Gal-BSA
[6] = biological target: IB4 lectin from Griffonia simplicifolia (Griffonia simplicifolia); assay: competition ELISA (I50): peptide inhibits biotinylated IB4 binding to Galα(1,3)Gal-BSA
[7] = biological target: human natural antibodies in normal human serum (NHS) (human); assay: cell-based or functional assay
[8] = biological target: BC1 anti-MUC1 monoclonal antibody; assay: flow cytometry, competition with MUC1 on MUC1+3T3 (MOR5) cells
[9] = biological target: human natural antibodies in normal human serum (NHS) (human); assay: flow cytometry, NHS (1/50) natural antibodies on PIEC cells; no inhibition at lower concentrations
[10] = biological target: IB4 lectin from Griffonia simplicifolia (Griffonia simplicifolia); assay: inhibition of IB4 reaction with galactomannan (not shown)
[11] = biological target: IB4 lectin from Griffonia simplicifolia (Griffonia simplicifolia); assay: flow cytometry, IB4 on pig PBL
[12] = biological target: IB4 lectin from Griffonia simplicifolia (Griffonia simplicifolia); assay: flow cytometry, IB4 (1 µg/ml) on PIEC cells

Molecule: TECKHKKGKVVSGKVLSY [CD4 pep 1, control peptide, murine CD4]
Inhibition of binding of IB4 to Galα(1,3)Gal-BSA [2]: did not inhibit
Inhibition of binding of anti-Galα(1,3)Gal IgG to Galα(1,3)Gal-BSA [1]: had no effect

Molecule: TGFNQYKTEAASRVNL [Muc pep 8, human Muc1 COOH to VNTR]
Inhibition of IB4 lectin binding to PIEC cells [3]: inhibited

Molecule: TSSASTGHATPLPVTP [Muc pep 11]
Inhibition of binding of IB4 to Galα(1,3)Gal-BSA [2]: complete inhibition
Inhibition of binding of anti-Galα(1,3)Gal IgG to Galα(1,3)Gal-BSA [1]: inhibited
IC50 [1]: 2500 µM
Inhibition of IB4 lectin binding to PIEC cells [3]: inhibited

Molecule: WEADLHWS [Scram pep 1]
IC50 [1]: > 20000 µM

Molecule: YTFDQKIVEWDSRKSKC [CD48 pep 1]
IC50 [2]: > 20000 µM
IC50 ([2]; read-out: I50 IB4, Table 3, biotinylated IB4 lectin 6.25 μgs/ml): > 20000 µM
Inhibition of cytotoxicity of NHS on PIEC [4]: had no effect

Continued, values first:

Inhibition of binding of anti-Galα(1,3)Gal IgG to Galα(1,3)Gal-BSA [1]: had no effect
Molecule: RYHHYSSNFSIPKANHSHSGDYYCKGSL [FcR pep 1, control peptide, MURINE FCRIIβ2]

IC50 [5]: > 20000 µM
IC50 [6]: > 20000 µM
B1: Scram pep 1 (peptide)
peptide: WEADLHWS

blocking of hemagglutination of pig RBC by NHS [7]: 5 mM
lowest peptide concentration that inhibited BC1 binding to MUC1+3T3 cells [8]: 0.156 mM
IC50 [5]: 10000 µM
peptide concentration at which inhibition occurred [9]: 20 mM
IC50 [6]: 300 µM
IC50 [10]: 5000 µM
peptide concentration that blocked IB4 binding to PBL [11]: 5 mM
B2: Gal pep 1 (DAHWESWL), synthetic peptide (peptide)
peptide: DAHWESWL

IC50 [6]: 1250 µM
B3: Muc pep 6 (peptide)
peptide: TGSGHASSTPGGEKETSAQRSSVP

IC50 [5]: > 20000 µM
IC50 [6]: > 20000 µM
B4: CD48 pep 1 (peptide)
peptide: YTFDQKIVEWDSRKSKC

IC50 [5]: 2500 µM
concentration down to which inhibition was almost complete [12]: 0.125 mM
IC50 [6]: 78 µM
B5: Muc pep 1 (peptide)
peptide: CPAHGVTSAPDTRPAPGSTAP

IC50 [5]: 2500 µM
IC50 [6]: 156 µM
B6: Muc pep 11 (peptide)
peptide: TSSASTGHATPLPVTP
